Results taken from PMC3932240 (Biochemistry, 2013).

Target: the molecule itself
Assay: SEC

B1: CpcS-III bilin lyase from Thermosynechococcus elongatus BP-1, C-terminally His-tagged (from pTER13-21) (enzyme, UniProt Q8DI91 1-182, looked up)
chain: MCIGMDIRDFFAQSAGRWFSQRTSHHLAFKQTESGKSQLTIELLSVDDPAVIALCQQYDMDPAWAVCGARVSWDGTMEWDNEKHEGSTVLVPIMDQGSRMEGKLLREMGYAEKAPVAGRFSMGSDGALTLITEYETIYSEERLWFASPNLRLRTSILKRFGGFSMASFCSEIRLGVTQPANS
modifications: selenomethionine-labeled in the sample that was crystallized
**Q.** With B1 as the protein, how does the “stoichiometry N” value read?
**A.** 2
